Results from US11124550.

Biological target: human voltage-gated sodium channel hNav1.1 (hSCN1A) (human) (UniProt P35498)
Assay: cell-based or functional assay

recombinant Hm1b (peptide), sequence (P0DOC5 1-34, tags left off): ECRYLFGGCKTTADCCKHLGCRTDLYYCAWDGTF

With recombinant Hm1b (peptide) the EC50 for evoking sustained currents was 0.0185 µM.
